In test [1] the target is CEACAM3-integrin β1 fusion construct (CEA3-ITGB1) (human) (UniProt P05556). Nature of the test: OPTIC (Opa protein triggered integrin clustering; recruitment of a fluorescent protein to the clustered chimeric receptor, confocal microscopy); 293T cells co-transfected with CEA3-ΔCT or a CEA3-ITGB chimera and the protein of interest fused to eGFP or mCherry, seeded on poly-L-lysine; infected 1 h with Pacific Blue-stained Opa52-expressing N. gonorrhoeae at MOI 20; fixed, stained for CEACAM3; R = maximum fluorescence at the clustered chimera / mean fluorescence of the cell; R > 2 defined as positive recruitment; n = 60 cells.

In test [2] the target is CEACAM3-integrin β5 fusion construct (CEA3-ITGB5) (human) (UniProt P18084). The description is as above.
Test [3] addresses CEACAM3-integrin β3 fusion construct (CEA3-ITGB3) (human) (UniProt P05106). Described as above.
Test [4] has as its target CEA3-ITGB2 C.ow (CEACAM3 fused to the cytoplasmic domain of Capsaspora owczarzaki integrin β homologue ITGB2 C.ow) (human | Capsaspora owczarzaki). The test is described as above.
Test [5] deals with CEA3-ITGB1 C.ow (CEACAM3 fused to the cytoplasmic domain of Capsaspora owczarzaki integrin β homologue ITGB1 C.ow) (human | Capsaspora owczarzaki). The description is as above.
Test [6] concerns the target CEACAM3-integrin β2 fusion construct (CEA3-ITGB2) (human) (UniProt P05107). The test is described as above.
The next test deals with CEA3-ITGB1 Y783A (human) (UniProt P05556). The test is described as above.
Test [7] has as its target eGFP-talin1 (human talin1) (UniProt Q9Y490). Nature of the test: OPTIC assay (microscopy of GFP-talin1 recruitment to clustered CEACAM3-integrin fusion proteins in 293T cells). The following applies: 293 T cells co-transfected with CEACAM3-integrin fusion constructs and GFP-talin1, infected for 1 h with Pacific Blue-labeled Ngo, read off a plot.

Some results are limits rather than exact numbers.

UniProt Q9Y490, sequence (Q9Y490 whole entry, looked up, the tested form may be a part): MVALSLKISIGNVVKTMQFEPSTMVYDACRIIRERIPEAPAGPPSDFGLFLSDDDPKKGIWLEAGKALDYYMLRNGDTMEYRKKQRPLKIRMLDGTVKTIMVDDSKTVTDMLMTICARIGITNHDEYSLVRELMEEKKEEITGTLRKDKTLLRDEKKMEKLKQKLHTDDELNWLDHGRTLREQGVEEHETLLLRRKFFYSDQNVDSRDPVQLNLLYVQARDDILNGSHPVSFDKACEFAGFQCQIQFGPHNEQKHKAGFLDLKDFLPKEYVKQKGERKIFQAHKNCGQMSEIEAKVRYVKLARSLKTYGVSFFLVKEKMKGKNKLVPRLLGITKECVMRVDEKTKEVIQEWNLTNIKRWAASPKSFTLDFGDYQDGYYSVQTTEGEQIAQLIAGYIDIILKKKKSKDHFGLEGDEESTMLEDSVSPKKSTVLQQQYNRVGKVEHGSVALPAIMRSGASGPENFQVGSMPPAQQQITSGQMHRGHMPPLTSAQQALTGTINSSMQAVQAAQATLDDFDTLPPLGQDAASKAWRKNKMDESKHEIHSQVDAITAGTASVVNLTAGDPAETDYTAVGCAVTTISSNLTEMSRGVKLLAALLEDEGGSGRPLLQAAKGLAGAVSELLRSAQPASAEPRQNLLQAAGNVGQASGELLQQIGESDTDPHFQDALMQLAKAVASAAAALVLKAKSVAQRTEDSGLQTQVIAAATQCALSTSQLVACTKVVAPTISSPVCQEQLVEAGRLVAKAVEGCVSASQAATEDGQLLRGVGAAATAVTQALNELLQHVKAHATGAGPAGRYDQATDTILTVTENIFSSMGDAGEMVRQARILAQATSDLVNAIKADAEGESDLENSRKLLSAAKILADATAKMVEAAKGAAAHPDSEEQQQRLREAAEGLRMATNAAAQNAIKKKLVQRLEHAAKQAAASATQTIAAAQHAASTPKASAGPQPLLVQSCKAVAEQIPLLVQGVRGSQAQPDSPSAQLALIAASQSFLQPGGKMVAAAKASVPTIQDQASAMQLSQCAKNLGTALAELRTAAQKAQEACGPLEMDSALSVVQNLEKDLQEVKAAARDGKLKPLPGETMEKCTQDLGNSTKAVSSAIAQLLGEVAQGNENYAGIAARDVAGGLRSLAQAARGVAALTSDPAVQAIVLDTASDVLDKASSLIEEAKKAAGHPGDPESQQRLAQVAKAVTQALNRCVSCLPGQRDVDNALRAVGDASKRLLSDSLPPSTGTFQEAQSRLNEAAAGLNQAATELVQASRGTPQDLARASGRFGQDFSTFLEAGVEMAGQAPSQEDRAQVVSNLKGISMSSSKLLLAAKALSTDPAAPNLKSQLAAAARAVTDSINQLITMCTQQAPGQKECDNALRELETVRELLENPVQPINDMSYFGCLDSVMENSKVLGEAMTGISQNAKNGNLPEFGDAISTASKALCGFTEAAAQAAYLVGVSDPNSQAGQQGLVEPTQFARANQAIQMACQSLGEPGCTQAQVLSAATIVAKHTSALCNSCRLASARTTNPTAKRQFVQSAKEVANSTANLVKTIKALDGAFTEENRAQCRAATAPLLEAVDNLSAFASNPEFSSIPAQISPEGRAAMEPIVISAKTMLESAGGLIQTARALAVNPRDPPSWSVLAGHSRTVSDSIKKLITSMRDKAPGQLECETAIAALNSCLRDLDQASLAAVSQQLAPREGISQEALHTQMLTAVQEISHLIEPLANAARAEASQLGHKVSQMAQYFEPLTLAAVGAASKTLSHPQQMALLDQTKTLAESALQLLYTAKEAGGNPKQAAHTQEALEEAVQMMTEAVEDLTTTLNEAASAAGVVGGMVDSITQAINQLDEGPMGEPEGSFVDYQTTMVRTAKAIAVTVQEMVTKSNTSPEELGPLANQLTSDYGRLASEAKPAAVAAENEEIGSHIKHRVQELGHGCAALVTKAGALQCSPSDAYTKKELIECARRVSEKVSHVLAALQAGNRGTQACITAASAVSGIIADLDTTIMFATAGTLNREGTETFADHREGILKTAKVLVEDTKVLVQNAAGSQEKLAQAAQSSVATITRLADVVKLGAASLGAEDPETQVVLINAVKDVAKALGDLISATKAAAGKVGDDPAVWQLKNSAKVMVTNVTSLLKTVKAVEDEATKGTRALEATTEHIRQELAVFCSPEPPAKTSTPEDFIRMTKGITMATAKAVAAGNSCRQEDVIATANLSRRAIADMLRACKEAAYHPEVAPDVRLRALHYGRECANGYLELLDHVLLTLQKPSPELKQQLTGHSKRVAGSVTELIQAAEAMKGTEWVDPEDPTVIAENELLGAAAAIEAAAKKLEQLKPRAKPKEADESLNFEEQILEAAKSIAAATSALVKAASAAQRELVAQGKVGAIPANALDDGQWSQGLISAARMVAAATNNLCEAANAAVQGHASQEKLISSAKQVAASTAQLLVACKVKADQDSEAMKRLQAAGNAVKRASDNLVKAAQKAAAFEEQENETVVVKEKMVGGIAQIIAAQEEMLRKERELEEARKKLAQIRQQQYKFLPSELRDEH

For the substance mCherry, in test [1], the recruitment ratio R (mean) was found to be 1.5.

“eGFP-talin1 (human talin1) (from UniProt Q9Y490 1-2541) (natural protein)”: the percent of cells with R >= 2 is 62% in test [2], 85% in test [3], 85% in test [1] and 85% in test [6]. For the same substance, the recruitment ratio R (mean) in test [2] is 2.1; in test [3] it was 3.78; in test [1], 3.41. In addition, the recruitment ratio R in test [4] and in test [5] was over 2 in each case.

Consider “mCherry-talin1 (human talin1) (from UniProt Q9Y490 1-2541) (natural protein)”, for which, in the test with CEA3-ITGB1 Y783A (human), the percent of cells with R >= 2 was determined as 17% and the recruitment ratio R (mean) worked out at 1.8. Moreover, in test [1], the percent of cells with R >= 2 was 85% and the recruitment ratio R (mean) is 2.84.

In the case of “eGFP-tagged human kindlin-2 (from UniProt Q96AC1 1-680) (natural protein)”, the recruitment ratio R (mean) in test [3] was found to be 2.4; in test [1], 3.9.

For “CEA3-ITGB2 C.ow (CEACAM3 fused to the cytoplasmic domain of Capsaspora owczarzaki integrin β homologue ITGB2 C.ow) F1038A”, in test [7] (n = 60 cells from three …, parent: est. 2.6), the other: talin recruitment ratio R is 2.2. In test [7] (parent: est. 64), the other: percentage of cells with talin recruitment R ≥ 2 was determined as 59%.

For the substance “eGFP-tagged paxillin (from UniProt P49023 1-591) (natural protein)”, the recruitment ratio R (mean) in test [3] turned out to be 2.57; in test [1], 2.92.

Values taken from PMC6450878.
